Assay results reported in publication PMC8298264, “Function of cofactor Akirin2 in the regulation of gene expression in model human neutrophil-like HL60 cells” (Bioscience Reports, 2021).

B1: sp¦Q9Y3A6¦TMED5_HUMAN (protein, UniProt Q9Y3A6 28-229, looked up)
Transmembrane emp24 …: FTPSLDSDFTFTLPAGQKECFYQPMPLKASLEIEYQVLDGAGLDIDFHLASPEGKTLVFEQRKSDGVHTVETEVGDYMFCFDNTFSTISEKVIFFELILDNMGEQAQEQEDWKKYITGTDILDMKLEDILESINSIKSRLSKSGHIQTLLRAFEARDRNIQESNFDRVNFWSMVNLVVMVVVSAIQVYMLKSLFEDKRKSRT
B2: sp¦Q9NVJ2¦ARL8B_HUMAN (protein, UniProt Q9NVJ2 1-186, looked up)
ADP-ribosylation factor-like …: MLALISRLLDWFRSLFWKEEMELTLVGLQYSGKTTFVNVIASGQFSEDMIPTVGFNMRKVTKGNVTIKIWDIGGQPRFRSMWERYCRGVNAIVYMIDAADREKIEASRNELHNLLDKPQLQGIPVLVLGNKRDLPNALDEKQLIEKMNLSAIQDREICCYSISCKEKDNIDITLQWLIQHSKSRRS
B3: sp¦O60488¦ACSL4_HUMAN (protein, UniProt O60488 1-711, looked up)
Long-chain-fatty-acid--CoA …: MKLKLNVLTIILLPVHLLITIYSALIFIPWYFLTNAKKKNAMAKRIKAKPTSDKPGSPYRSVTHFDSLAVIDIPGADTLDKLFDHAVSKFGKKDSLGTREILSEENEMQPNGKVFKKLILGNYKWMNYLEVNRRVNNFGSGLTALGLKPKNTIAIFCETRAEWMIAAQTCFKYNFPLVTLYATLGKEAVVHGLNESEASYLITSVELLESKLKTALLDISCVKHIIYVDNKAINKAEYPEGFEIHSMQSVEELGSNPENLGIPPSRPTPSDMAIVMYTSGSTGRPKGVMMHHSNLIAGMTGQCERIPGLGPKDTYIGYLPLAHVLELTAEISCFTYGCRIGYSSPLTLSDQSSKIKKGSKGDCTVLKPTLMAAVPEIMDRIYKNVMSKVQEMNYIQKTLFKIGYDYKLEQIKKGYDAPLCNLLLFKKVKALLGGNVRMMLSGGAPLSPQTHRFMNVCFCCPIGQGYGLTESCGAGTVTEVTDYTTGRVGAPLICCEIKLKDWQEGGYTINDKPNPRGEIVIGGQNISMGYFKNEEKTAEDYSVDENGQRWFCTGDIGEFHPDGCLQIIDRKKDLVKLQAGEYVSLGKVEAALKNCPLIDNICAFAKSDQSYVISFVVPNQKRLTLLAQQKGVEGTWVDICNNPAMEAEILKEIREAANAMKLERFEIPIKVRLSPEPWTPETGLVTDAFKLKRKELRNHYLKDIERMYGGK
B4: sp¦P16615¦AT2A2_HUMAN (protein, UniProt P16615 1-1042, looked up)
Sarcoplasmic/endoplasmic …: MENAHTKTVEEVLGHFGVNESTGLSLEQVKKLKERWGSNELPAEEGKTLLELVIEQFEDLLVRILLLAACISFVLAWFEEGEETITAFVEPFVILLILVANAIVGVWQERNAENAIEALKEYEPEMGKVYRQDRKSVQRIKAKDIVPGDIVEIAVGDKVPADIRLTSIKSTTLRVDQSILTGESVSVIKHTDPVPDPRAVNQDKKNMLFSGTNIAAGKAMGVVVATGVNTEIGKIRDEMVATEQERTPLQQKLDEFGEQLSKVISLICIAVWIINIGHFNDPVHGGSWIRGAIYYFKIAVALAVAAIPEGLPAVITTCLALGTRRMAKKNAIVRSLPSVETLGCTSVICSDKTGTLTTNQMSVCRMFILDRVEGDTCSLNEFTITGSTYAPIGEVHKDDKPVNCHQYDGLVELATICALCNDSALDYNEAKGVYEKVGEATETALTCLVEKMNVFDTELKGLSKIERANACNSVIKQLMKKEFTLEFSRDRKSMSVYCTPNKPSRTSMSKMFVKGAPEGVIDRCTHIRVGSTKVPMTSGVKQKIMSVIREWGSGSDTLRCLALATHDNPLRREEMHLEDSANFIKYETNLTFVGCVGMLDPPRIEVASSVKLCRQAGIRVIMITGDNKGTAVAICRRIGIFGQDEDVTSKAFTGREFDELNPSAQRDACLNARCFARVEPSHKSKIVEFLQSFDEITAMTGDGVNDAPALKKAEIGIAMGSGTAVAKTASEMVLADDNFSTIVAAVEEGRAIYNNMKQFIRYLISSNVGEVVCIFLTAALGFPEALIPVQLLWVNLVTDGLPATALGFNPPDLDIMNKPPRNPKEPLISGWLFFRYLAIGCYVGAATVGAAAWWFIAADGGPRVSFYQLSHFLQCKEDNPDFEGVDCAIFESPYPMTMALSVLVTIEMCNALNSLSENQSLLRMPPWENIWLVGSICLSMSLHFLILYVEPLPLIFQITPLNVTQWLMVLKISLPVILMDETLKFVARNYLEPGKECVQPATKSCSFSACTDGISWPFVLLIMPLVIWVYSTDTNFSDMFWS

Test system: human HL60 cells
Assay: SWATH-MS proteomics, differential protein representation, akirin2 KO vs WT HL60 cells
Format: cell-based
Conditions: sheet "Under-represented in KO"
How it was run: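 Three biological replicates per genotype; 150 µg protein FASP/trypsin digested; IDA library (3 µg digest); SWATH variable windows, 5 µg/sample, 3.6 s cycle; gradient 5–30% B 120 min then 30–60% B 15 min; 1% global FDR; TAS normalization.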

Row | Molecule | Fold Change (akirin2 KO vs WT HL60 cells) | Log (Fold Change) (akirin2 KO vs WT HL60 cells) | Fold Change (KO vs WT HL60 cells) | Log (Fold Change) (KO vs WT HL60 cells)
1 | B1 | 0.2554 | -0.5928 |  | 
2 | B2 |  |  | 0.5417 | -0.2663
3 | B3 |  |  | 0.5384 | -0.2689
4 | B4 |  |  | 0.5392 | -0.2682
